Data: US20210252159A1, “CONJUGATES OF CARTILAGE-HOMING PEPTIDES” (priority 2018, published 2021)
Like-named read-outs stand apart in the source and are kept apart here. Positions of bridges follow the written chain, without caps; N, C: chain ends. Residues, ends and D or L forms follow the SMILES beside them. *: point of attachment. X1 = CC(CCC(C)C(=O)*)C(=O)OCC(=O)[C@@]1(O)[C@H](C)C[C@H]2[C@@H]3CCC4=CC(=O)C=C[C@]4(C)[C@@]3(F)[C@@H](O)C[C@@]21C

Columns and labels:
[1] = in vivo
Excerpt: Dexamethasone alone has low water solubility. […] A secondary objective was to measure free Dex levels in knee joints.
All samples were collected at euthanasia. Free Dex was extracted from plasma samples and quantified by LC/MS. […] To measure the total Dex concentration (free Dex released in vivo+Dex associated with intact peptide-drug conjugate) in plasma of rats treated with Peptide(SEQ ID NO: 105)-DMA-Dex, a separate plasma sample was subjected to forced hydrolysis followed by extraction of free Dex. Dexamethasone extraction was achieved by acetonitrile precipitation from plasma samples. The forced hydrolysis protocol involved addition of 10 U porcine esterase to the plasma and incubation for 22 h at 37° C. Total white blood cell counts, absolute lymphocyte counts, and thymus and spleen weights were measured to assess systemic markers of Dex exposure over the time-course.
In order to quantify the concentration of free Dex in knee joints, knee joints were harvested, the joint capsule was opened, and the knee joints were then shaken in ethyl acetate for 12 h at 4° C. The extract was centrifuged and the supernatant was dried under nitrogen in a 96 well plate. The samples were then reconstituted and analyzed by LC/MS using the same protocol developed for quantifying free Dex in plasma.
An indirect estimate of intact peptide-drug conjugate concentration at each time-point can be made by subtracting the free Dex concentration (from direct extraction) from the total Dex concentration (from forced hydrolysis). […] Systemic exposure to Dex was assessed by multiple parameters: total white blood cell (WBC) count; absolute lymphocyte count; thymus weight; and spleen weight (FIG. 15).

[2] = Hydrolysis assay of peptide-drug conjugates in rat plasma (free drug by LC/MS); type: in vitro ADME; settings: 37° C.
[3] = any time-point to 24 h, single IV dose 0.2 mg/kg

Compound: CC[C@H](C)[C@@H]1NC(=O)[C@@H]2CSSC[C@H](NC(=O)[C@H](CCCNC(=N)N)NC(=O)[C@@H](NC(=O)[C@H](CC(N)=O)NC(=O)[C@@H](NC(=O)[C@@H]3CCCN3C(=O)[C@@H](NC(=O)CNC(=O)[C@H](CO)NC(=O)CNC(=O)C(C)CCC(C)C(=O)OCC(=O)[C@@]3(O)[C@H](C)C[C@H]4[C@@H]5CCC6=CC(=O)C=C[C@]6(C)[C@@]5(F)[C@@H](O)C[C@@]43C)C(C)C)[C@@H](C)CC)C(C)C)C(=O)N[C@@H](CCCNC(=N)N)C(=O)NCC(=O)N[C@@H](CO)C(=O)N[C@@H](CCCNC(=N)N)C(=O)N[C@@H](CC(=O)O)C(=O)N[C@H]3CSSC[C@H](NC(=O)[C@H](CCCNC(=N)N)NC(=O)[C@H](CO)NC(=O)[C@H](CC(N)=O)NC1=O)C(=O)N[C@@H](Cc1c[nH]cn1)C(=O)N[C@H](C(=O)N[C@H](C(=O)N1CCC[C@H]1C(=O)O)[C@@H](C)O)CSSC[C@H](NC(=O)[C@@H]1CCCN1C(=O)[C@H](CC(=O)O)NC(=O)[C@H](CC(C)C)NC3=O)C(=O)N[C@@H](CCCNC(=N)N)C(=O)N[C@@H](CCCNC(=N)N)C(=O)N[C@@H](C)C(=O)NCC(=O)N[C@@H](CCSC)C(=O)N[C@@H](CCCNC(=N)N)C(=O)N[C@@H](Cc1ccccc1)C(=O)NCC(=O)N[C@@H](CCCNC(=N)N)C(=O)N2 (some centres unmarked) [Compound 27, peptide(SEQ ID NO: 105)-[dimethyladipic acid]-Dex] (X1-GSGVPINVRCRGSRDCLDPCRRAGMRFGRCINSRCHCTP-OH; disulfide 10-30, 16-35, 20-37 (inferred); C-terminus assumed)
- WBC and lymphocyte cell counts as compared to DexSP ([1]; 2 h after single IV dose 0.2 mg/kg): higher
- lymphocyte counts as compared to DexSP ([1]; 12 h after single IV dose 0.2 mg/kg): lower
- Thymus weight, difference between DexSP and conjugate [1, 3]: not significantly different
- spleen weight, difference between DexSP and conjugate [1, 3]: not significantly different
- half-life ([1]; female, Lewis, rat, in vivo, iv, 0.2 mg/kg): ~90 min
- detectability of intact peptide-drug conjugate in plasma ([1]; plasma, total Dex minus free Dex, single IV dose 0.2 mg/kg): not detectable after 6 h
- half-life at 0.25 mg/mL ([2]; Rat Plasma, release of free Dex, time points to 32 hr, read-out: Half-life (hours) as measured in the hydrolysis experiments (converted)): 9.9 h
- half-life at 0.25 mg/mL ([2]; in rat plasma, free Dex, read-out: Hydrolysis half-life (converted)): 9.9 h
